Columns and labels:
human TMEM106B (human) [1] = target: human TMEM106B (human) (UniProt Q9NUM4); experiment: FACS A549
human TMEM106B (human) [2] = target: human TMEM106B (human) (UniProt Q9NUM4); experiment: FACS HeLa
human TMEM106B (human) [3] = target: human TMEM106B (human) (UniProt Q9NUM4); experiment: FACS U251
mouse TMEM106B (mouse) = mouse TMEM106B (mouse) (UniProt Q80X71); experiment: FACS Neuro2a

Substance	MFI (human TMEM106B (human) [1])	MFI (human TMEM106B (human) [2])	MFI (human TMEM106B (human) [3])	MFI (mouse TMEM106B (mouse))
Negative ctrl #1 (antibody)	148 MFI	152 MFI	165 MFI	220 MFI
Negative ctrl #2 (antibody)	162 MFI	149 MFI	165 MFI	235 MFI
Negative ctrl #3 (antibody)	95 MFI	143 MFI	164 MFI	216 MFI

Source: US20200339680A1
